Consider 6 molecules from patent US20160362460A1 (Pieris, published 2016).

For assay [1], the target named is T1, Human CTLA-4-Fc (Chimerigen, CHI-HF-210A4-M001) (human, UniProt P16410 37-162).
T1 construct: Bought protein; also called hCTLA-4; not shown: Fc part of the bought fusion
The experiment in a line: SPR (Biacore T200), human CTLA-4-Fc captured by anti-human IgG-Fc, mutein as analyte, 1:1 fit.

For assay [2], the target named is T2, human CTLA-4 on transfected CHO-K1 cells (human, UniProt P16410 36-223).
T2 construct: whole, on cells; also called CHO: CTLA-4; human CTLA-4 expressing CHO cells
T2 sequence (P16410 36-223): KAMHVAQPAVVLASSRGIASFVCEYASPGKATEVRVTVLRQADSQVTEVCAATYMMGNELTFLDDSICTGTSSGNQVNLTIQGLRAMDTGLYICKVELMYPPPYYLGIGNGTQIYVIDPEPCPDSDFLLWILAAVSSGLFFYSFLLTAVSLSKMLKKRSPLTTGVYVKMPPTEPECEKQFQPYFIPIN
The experiment in a line: FACS competition: inhibition of 20 nM biotinylated CD80/B7.1 binding to CTLA-4-transfected CHO-K1 cells.

Assay [3] concerns the target T2, human CTLA-4 on transfected CHO-K1 cells. In words: FACS competition: inhibition of 20 nM B7.1 Fc-bio binding to human CTLA-4-transfected CHO cells.
Assay [4] has the same target. The experiment in a line: FACS competition on human CTLA-4-transfected CHO cells; blocked ligand 20 nM biotinylated human B7.1 Fc, detected with streptavidin-PE.
Assay [5] has the same target. In words: FACS competition on human CTLA-4-transfected CHO cells; blocked ligand 20 nM biotinylated human B7.1, streptavidin-phycoerythrin.

T1 sequence (P16410 37-162 limits assumed, change not shown): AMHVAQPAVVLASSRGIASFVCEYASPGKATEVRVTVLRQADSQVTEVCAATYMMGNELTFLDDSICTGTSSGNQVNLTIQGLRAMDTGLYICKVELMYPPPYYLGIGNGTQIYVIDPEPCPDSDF

B1: lipocalin mutein SEQ ID NO: 62 (designed binder)
chain: QDSTSDLIPAPPLSKVPLQQNFQDNQFQGKWYVVGLAGNRILRDDQHPMPMYATIYELKGDKSYNVTSVISSHKKCLYPIATFVPGSQPGEFTLGNIKSYGDKWSYLVRVVSTDYNQYAVVFFKHADSNYESFSITIYGRTKELASELKENFIRFSKSLGLPENHIVFPVPIDQCIDG
As usually defined, the Kd is the concentration at which binding is half-saturated. A lower Kd goes with higher affinity. By koff is commonly meant the rate constant with which the complex falls apart. A lower koff goes with a long-lived complex. The term kon denotes the second-order rate constant of association. High values mean fast association, low ones slow association. A word on the EC50: it is the midpoint of the concentration-response curve. Low readings indicate an effect from little substance, high ones a need for much substance. With B1, in assay [1], the equilibrium dissociation constant (Kd) was found to be 0.36 nM, the off-rate (koff) came to 0.00027 s⁻¹ and the kon was determined as 750000 M⁻¹ s⁻¹. Besides, in assay [2], the concentration for a half-maximal effect (EC50) was 6 nM.

B2: CTLA-4 specific lipocalin mutein (SEQ ID NO: 4) (designed binder)
chain: QDSTSDLIPAPPLSKVPLQQNFQDNQFHGKWYVVGLAGNRILRDDQHPMPMYATIYELKGDKSYNVTSVISSHKKCLYPIATFVPGSQPGEFTLGNIKSYGDKWSYLVRVVSTDYNQYAVVFFKHADSNYESFSITIYGRTKELASELKENFIRFSKSLGLPENHIVFPVPIDQCIDG
notes: hNGAL (lipocalin 2) mutein
By IC50 is commonly meant the point on the concentration scale where inhibition reaches its midpoint. A lower IC50 goes with greater potency in that assay. B2 showed an IC50 in assay [3] of 23 nM. Further, in assay [1], binding was put at a Kd of 0.35 nM, the koff was found to be 0.00022 s⁻¹ and the kon amounted to 640000 M⁻¹ s⁻¹. In assay [2], this molecule returned an EC50 of 7.6 nM. Besides, the “IC50 (read off the curve)” value in assay [4] was roughly 20 nM.

B3: lipocalin mutein SEQ ID NO: 61 (designed binder)
chain: QDSTSDLIPAPPLSKVPLQQNFQDNQFQGKWYVVGLAGNRILRLDQHPMPMYATIYELKGDKSYNVTSVISSHKKCLYPIATFVPGSQPGEFTLGNIRSYGDKTSYLVRVVSTDYNQYAVVFFKHADTNYESFSITIYGRTKELASELKENFIRFSKSLGLPENHIVFPVPIDQCIDG
In assay [1], B3 had a Kd of 0.94 nM, a dissociation rate constant (koff) of 0.00072 s⁻¹ and a kon of 770000 M⁻¹ s⁻¹. This molecule registered an EC50 in assay [2] of 9.3 nM.

B4: lipocalin mutein SEQ ID NO: 94 (designed binder)
chain: QDSTSDLIPAPPLSKVPLQQNFQDNQFQGKWYVVGLAGNRILRQDQHPMPMYATIYELKEDKSYQVTSVISSHKKCLYPIATFVPGSQPGEFTLGNIKSYGDKVSYLVRVVSTNYNQHAMVFFKYADRNFESFSITLYGRTKELTSELKENFIRFSKSLGLPENHIVFPVPIDQCIDG
In assay [1], B4 showed a Kd of 1.8 nM, a koff of 0.00061 s⁻¹ and a kon of 340000 M⁻¹ s⁻¹. Also, the EC50 in assay [2] turned out to be 13.4 nM. Moreover, in assay [5], the “IC50 (read off the curve)” value was 10 to 20 nM.

B5: lipocalin mutein SEQ ID NO: 65 (designed binder)
chain: QDSTSDLIPAPPLSKVPLQQNFQDNQFQGKWYVVGLAGNRILRDDQHPMPMYATIYELKEDKSYQVTSVISSHKKCLYPIATFVPGSQPGEFTLGNIKSYGDKWSYLVRVVSTNYNQHAMVFFKHADSNYESFSITLYGRTKELTSELKENFIRFSKSLGLPENHIVFPVPIDQCIDGSAWSHPQFEK
In assay [1], B5 came in with a Kd of 0.62 nM, a koff of 0.00044 s⁻¹ and an on-rate (kon) of 710000 M⁻¹ s⁻¹. This molecule also showed a concentration for a half-maximal effect (EC50) in assay [2] of 7.8 nM.

B6: lipocalin mutein SEQ ID NO: 66 (designed binder)
chain: QDSTSDLIPAPPLSKVPLQQNFQDNQFQGKWYVVGLAGNRILRLDQHPMPMYATIYELKEDKSYQVTSVISSHKKCLYPIATFVPGSQPGEFTLGNIRSYGDKTSYLVRVVSTNYNQHAMVFFKHADTNYESFSITLYGRTKELTSELKENFIRFSKSLGLPENHIVFPVPIDQCIDGSAWSHPQFEK
In the case of B6, in assay [1], the Kd amounted to 1.8 nM, the koff came to 0.0013 s⁻¹ and the on-rate constant (kon) was 750000 M⁻¹ s⁻¹. The molecule further returned a concentration giving a half-maximal response (EC50) in assay [2] of 7.4 nM.
